# Tested on: Daudi cells
# Test: Antibody-dependent cellular cytotoxicity (ADCC) of PiNK cells with rituximab, PKH26/TO-PRO-3 FACS
# Type: cell-based
# Conditions: Daudi cells pre-incubated 1 h with rituximab, compared to human IgG isotype control; E:T 50:1, 20:1, 10:1 and 2.5:1; 4 h at 37° C.
# Procedure: The experiments presented herein utilize an anti-CD20 antibody, rituximab, and Daudi cells (Cat #: CCL-213, ATCC), which are high expressers of CD20. Daudi cells were harvested and labeled with PKH26 (Cat #: PKH26GL-1KT, Sigma-Aldrich) (Ferlazzo, G., et al., J Immunol, 172: 1455-1462 (2004); Lehmann, D., et al., Stem Cells Dev, 21: 2926-2938 (2012)), whose lipophilic aliphatic residue inserts into cell plasma membrane. The cells were washed and incubated with rituximab (and human IgG as an isotype control) at different concentrations as indicated in FIG. 1 for 1 h at room temperature. After washing three times, 10^4 target cells were placed in 96-well U-bottom tissue culture plates and incubated with cultured NK cells at various effector-target (E:T) ratios (50:1, 20:1, 10:1 and 2.5:1) in 200 μl RPMI 1640 supplemented with 10% FBS. The Cultures were incubated for 4 h at 37° C. in 5% CO2. After incubation, cells were harvested and TO-PRO-3 (Catalog #T3605, Invitrogen), a membrane-impermeable DNA stain, was added to cultures to 0.25 μM final concentration followed by FACS analysis using BD FACSCanto II. Cytotoxicity (“% cytotoxicity” in FIG. 1) is expressed as percentage of dead cells (PKH26^+TO-PRO-3^+) within the total PKH26^+ target tumor cells, subtracted by spontaneous cell death.
substance,measurement,value
rituximab,"% cytotoxicity of PiNK cells (dead PKH26+TO-PRO-3+ cells within total PKH26+ target cells, minus spontaneous cell death)",increases the cytotoxicity

# Reference: patent US20210008109A1, “METHODS OF TREATING HEMATOLOGICAL DISORDERS, SOLID TUMORS, OR INFECTIOUS DISEASES USING NATURAL KILLER CELLS” (CELGENE CORPORATION, priority 2014, published 2021)
